US20230151068A1

target: biotinylated His-Avi-TEAD (194-411) (UniProt P28347); assay: SSM screen, enrichment after two rounds of sorting

| Binder | enrichment score |
| --- | --- |
| GSPDEYIERAKECCKKLDIQCCLRYFEESGDPNVMLICLFCP (designed binder) [G15L variant of SEQ ID NO: 1] | -0.59 |
| GSPDEYIERAKGCCKKGDIQCCLRYFEESGDPNVMLICLFCP (designed binder) [E10G variant of SEQ ID NO: 1] | -0.44 |
| GSPDEYIERAKECCKKWDIQCCLRYFEESGDPNVMLICLFCP (designed binder) [G15W variant of SEQ ID NO: 1] | -4.75 |
| GSPDEYIERAKECCKKGDIYCCLRYFEESGDPNVMLICLFCP (designed binder) [Q18Y variant of SEQ ID NO: 1] | -8.35 |
| GSPDEYIERDKECCKKGDIQCCLRYFEESGDPNVMLICLFCP (designed binder) [A08D variant of SEQ ID NO: 1] | -4.17 |
| GSPDEYIERGKECCKKGDIQCCLRYFEESGDPNVMLICLFCP (designed binder) [A08G variant of SEQ ID NO: 1] | -4.11 |
| GSPDEYIERAKECCKKGDPQCCLRYFEESGDPNVMLICLFCP (designed binder) [I17P variant of SEQ ID NO: 1] | -2.41 |
| GSPDEYIERAKECCKKGDWQCCLRYFEESGDPNVMLICLFCP (designed binder) [I17W variant of SEQ ID NO: 1] | -10.4 |
| GSPDEYIERAKECCKKGDIFCCLRYFEESGDPNVMLICLFCP (designed binder) [Q18F variant of SEQ ID NO: 1] | -4.21 |
| GSPDEYIERAKECCKYGDIQCCLRYFEESGDPNVMLICLFCP (designed binder) [K14Y variant of SEQ ID NO: 1] | -0.68 |
| GSPGEYIERAKECCKKGDIQCCLRYFEESGDPNVMLICLFCP (designed binder) [D02G variant of SEQ ID NO: 1] | -0.32 |
| GSPDEYIERAKECCKKGDIVCCLRYFEESGDPNVMLICLFCP (designed binder) [Q18V variant of SEQ ID NO: 1] | -0.77 |
| GSPDDYIERAKECCKKGDIQCCLRYFEESGDPNVMLICLFCP (designed binder) [E03D variant of SEQ ID NO: 1] | 0.8 |
| GSPDEYIERAKECCKWGDIQCCLRYFEESGDPNVMLICLFCP (designed binder) [K14W variant of SEQ ID NO: 1] | -2.64 |
| GSPDEYIERAKECCKKGDIPCCLRYFEESGDPNVMLICLFCP (designed binder) [Q18P variant of SEQ ID NO: 1] | 0.69 |
| GSGDEYIERAKECCKKGDIQCCLRYFEESGDPNVMLICLFCP (designed binder) [P01G variant of SEQ ID NO: 1] | 1.7 |
| GSPDEYIERAKECCFKGDIQCCLRYFEESGDPNVMLICLFCP (designed binder) [K13F variant of SEQ ID NO: 1] | -1.14 |
| GSPDEYIERAKECCYKGDIQCCLRYFEESGDPNVMLICLFCP (designed binder) [K13Y variant of SEQ ID NO: 1] | -1.29 |
| GSPDEYIERAKECCKKGDIWCCLRYFEESGDPNVMLICLFCP (designed binder) [Q18W variant of SEQ ID NO: 1] | -11.1 |

| Binder | enrichment score |
| --- | --- |
| GSPDEEIERAKECCKKGDIQCCLRYFEESGDPNVMLICLFCP (designed binder) [Y04E variant of SEQ ID NO: 1] | -6.52 |
| GSPDEYIERAKECCPKGDIQCCLRYFEESGDPNVMLICLFCP (designed binder) [K13P variant of SEQ ID NO: 1] | -10.4 |
| GSPDEYIERAKECCKKGPIQCCLRYFEESGDPNVMLICLFCP (designed binder) [D16P variant of SEQ ID NO: 1] | -4.62 |
| GSPDEDIERAKECCKKGDIQCCLRYFEESGDPNVMLICLFCP (designed binder) [Y04D variant of SEQ ID NO: 1] | -1.79 |
| GSPDEYIERAKECCKKPDIQCCLRYFEESGDPNVMLICLFCP (designed binder) [G15P variant of SEQ ID NO: 1] | -1.25 |
| GSPDEYIERAKECCWKGDIQCCLRYFEESGDPNVMLICLFCP (designed binder) [K13W variant of SEQ ID NO: 1] | -2.99 |
| GSPDEYIERAGECCKKGDIQCCLRYFEESGDPNVMLICLFCP (designed binder) [K09G variant of SEQ ID NO: 1] | -0.48 |
| GSPDGYIERAKECCKKGDIQCCLRYFEESGDPNVMLICLFCP (designed binder) [E03G variant of SEQ ID NO: 1] | -0.62 |
| GSPDEYIERAKECCKKGWIQCCLRYFEESGDPNVMLICLFCP (designed binder) [D16W variant of SEQ ID NO: 1] | -2.3 |
| GSPDEYIERAKECCKKYDIQCCLRYFEESGDPNVMLICLFCP (designed binder) [G15Y variant of SEQ ID NO: 1] | -1.14 |
| GSEDEYIERAKECCKKGDIQCCLRYFEESGDPNVMLICLFCP (designed binder) [P01E variant of SEQ ID NO: 1] | 1.12 |
| GSPDEYIERAKECCKPGDIQCCLRYFEESGDPNVMLICLFCP (designed binder) [K14P variant of SEQ ID NO: 1] | -10.6 |
| GSPDEYIERAKECCKKGLIQCCLRYFEESGDPNVMLICLFCP (designed binder) [D16L variant of SEQ ID NO: 1] | -8.99 |
| GSPDEYIERAKECCKFGDIQCCLRYFEESGDPNVMLICLFCP (designed binder) [K14F variant of SEQ ID NO: 1] | -0.5 |
| GSPDEYIERAKECCKKFDIQCCLRYFEESGDPNVMLICLFCP (designed binder) [G15F variant of SEQ ID NO: 1] | -1.98 |
| GSPDEYIEDAKECCKKGDIQCCLRYFEESGDPNVMLICLFCP (designed binder) [R07D variant of SEQ ID NO: 1] | -2.25 |
| GSPDEGIERAKECCKKGDIQCCLRYFEESGDPNVMLICLFCP (designed binder) [Y04G variant of SEQ ID NO: 1] | -2.21 |
| GSPDEYIERAKECCKKGDVQCCLRYFEESGDPNVMLICLFCP (designed binder) [I17V variant of SEQ ID NO: 1] | 4.17 |
| GSPDEYIERAKECCVKGDIQCCLRYFEESGDPNVMLICLFCP (designed binder) [K13V variant of SEQ ID NO: 1] | -1.65 |

| Binder | enrichment score |
| --- | --- |
| GSPDEYIERAKECCKKGFIQCCLRYFEESGDPNVMLICLFCP (designed binder) [D16F variant of SEQ ID NO: 1] | -1.86 |
| GSDDEYIERAKECCKKGDIQCCLRYFEESGDPNVMLICLFCP (designed binder) [P01D variant of SEQ ID NO: 1] | -0.65 |
| GSPDEYIERAKECCKKGDLQCCLRYFEESGDPNVMLICLFCP (designed binder) [I17L variant of SEQ ID NO: 1] | 1.28 |
| GSPDEYIGRAKECCKKGDIQCCLRYFEESGDPNVMLICLFCP (designed binder) [E06G variant of SEQ ID NO: 1] | -1.15 |
| GSPDEYDERAKECCKKGDIQCCLRYFEESGDPNVMLICLFCP (designed binder) [I05D variant of SEQ ID NO: 1] | -3.47 |
| GSPDEYIERAKECCKKVDIQCCLRYFEESGDPNVMLICLFCP (designed binder) [G15V variant of SEQ ID NO: 1] | 0.99 |
| GSPDEYIERAKECCKKGDYQCCLRYFEESGDPNVMLICLFCP (designed binder) [I17Y variant of SEQ ID NO: 1] | -9.48 |
| GSPDEYIDRAKECCKKGDIQCCLRYFEESGDPNVMLICLFCP (designed binder) [E06D variant of SEQ ID NO: 1] | -0.6 |
| GSPDEYIERAKECCKKGDILCCLRYFEESGDPNVMLICLFCP (designed binder) [Q18L variant of SEQ ID NO: 1] | -4.91 |
| GSPDEYIERADECCKKGDIQCCLRYFEESGDPNVMLICLFCP (designed binder) [K09D variant of SEQ ID NO: 1] | -0.58 |
| GSPDEYIERAKECCKKGYIQCCLRYFEESGDPNVMLICLFCP (designed binder) [D16Y variant of SEQ ID NO: 1] | -3.84 |
| GSPDEYIERAKECCKKGVIQCCLRYFEESGDPNVMLICLFCP (designed binder) [D16V variant of SEQ ID NO: 1] | -7.81 |
| GSPDEYIERAKDCCKKGDIQCCLRYFEESGDPNVMLICLFCP (designed binder) [E10D variant of SEQ ID NO: 1] | -0.89 |
| GSPEEYIERAKECCKKGDIQCCLRYFEESGDPNVMLICLFCP (designed binder) [D02E variant of SEQ ID NO: 1] | 1.16 |
| GSPDEYIERAKECCKKGDFQCCLRYFEESGDPNVMLICLFCP (designed binder) [I17F variant of SEQ ID NO: 1] | -3.5 |
| GSPDEYIEGAKECCKKGDIQCCLRYFEESGDPNVMLICLFCP (designed binder) [R07G variant of SEQ ID NO: 1] | 1.31 |
| GSPDEYGERAKECCKKGDIQCCLRYFEESGDPNVMLICLFCP (designed binder) [I05G variant of SEQ ID NO: 1] | -3.97 |
| GSPDEYIERAKECCKVGDIQCCLRYFEESGDPNVMLICLFCP (designed binder) [K14V variant of SEQ ID NO: 1] | 0.08 |
